According to the supplement of paper PMC9112550, “Optimization of the antimicrobial peptide Bac7 by deep mutational scanning” (BMC Biology, 2022):

system: Escherichia coli TOP10; assay: shrunken log2 fold change of peptide-encoding DNA abundance (4.5 h post-induction vs induction); higher = less antimicrobial activity (less host growth inhibition); conditions: time post-induction: 4.5 h; library: site-saturation at positions 5, 18, 19, 20
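Note: peptides expressed intracellularly from a pBAD plasmid library in pooled LB shake-flask culture, induced with 0.3% L-arabinose, DNA abundance read by NGS, three biological replicates, DESeq2 with apeglm shrinkage.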

Sequence | shrunken log2 fold change
RRIRGRPPRLPRPRPRPQFNPRP | -0.163
RRIRGRPPRLPRPRPRPQFSPRP | 0.0687
RRIRGRPPRLPRPRPRPQFWPRP | 0.553
RRIRGRPPRLPRPRPRPQGFPRP | 0.441
RRIRGRPPRLPRPRPRPQGWPRP | 1.04
RRIRGRPPRLPRPRPRPQGYPRP | 0.045
RRIRGRPPRLPRPRPRPQHEPRP | 0.0159
RRIRGRPPRLPRPRPRPQKSPRP | 0.316
RRIRGRPPRLPRPRPRPQLMPRP | 0.509
RRIRGRPPRLPRPRPRPQMRPRP | 0.899
RRIRGRPPRLPRPRPRPQPAPRP | 0.833
RRIRGRPPRLPRPRPRPQQNPRP | 0.383
RRIRGRPPRLPRPRPRPQRKPRP | 0.471
RRIRGRPPRLPRPRPRPQRTPRP | 0.853
RRIRGRPPRLPRPRPRPQRVPRP | 0.423
RRIRGRPPRLPRPRPRPQTEPRP | 0.149
RRIRGRPPRLPRPRPRPQTWPRP | 0.0175
RRIRGRPPRLPRPRPRPQVQPRP | 0.273
RRIRGRPPRLPRPRPRPQWCPRP | 0.216
RRIRGRPPRLPRPRPRPRAHPRP | 0.857
RRIRGRPPRLPRPRPRPRCQPRP | 0.835
RRIRGRPPRLPRPRPRPRDLPRP | 0.473
RRIRGRPPRLPRPRPRPREPPRP | 0.812
RRIRGRPPRLPRPRPRPRGHPRP | 1.11
RRIRGRPPRLPRPRPRPRGIPRP | 1.23

Sequence | shrunken log2 fold change
RRIRGRPPRLPRPRPRPRIAPRP | 0.519
RRIRGRPPRLPRPRPRPRIEPRP | 0.249
RRIRGRPPRLPRPRPRPRILPRP | 0.404
RRIRGRPPRLPRPRPRPRKGPRP | 0.148
RRIRGRPPRLPRPRPRPRLLPRP | 0.908
RRIRGRPPRLPRPRPRPRLNPRP | 0.57
RRIRGRPPRLPRPRPRPRMQPRP | 0.494
RRIRGRPPRLPRPRPRPRNEPRP | 0.725
RRIRGRPPRLPRPRPRPRNTPRP | 0.0904
RRIRGRPPRLPRPRPRPRQDPRP | 0.452
RRIRGRPPRLPRPRPRPRQNPRP | 0.768
RRIRGRPPRLPRPRPRPRQRPRP | 0.815
RRIRGRPPRLPRPRPRPRRDPRP | 0.424
RRIRGRPPRLPRPRPRPRRLPRP | 0.502
RRIRGRPPRLPRPRPRPRSAPRP | 1.31
RRIRGRPPRLPRPRPRPRTKPRP | 0.942
RRIRGRPPRLPRPRPRPRTVPRP | 0.448
RRIRGRPPRLPRPRPRPRVMPRP | 0.473
RRIRGRPPRLPRPRPRPRVNPRP | 0.394
RRIRGRPPRLPRPRPRPRVVPRP | 0.667
RRIRGRPPRLPRPRPRPRWAPRP | 0.702
RRIRGRPPRLPRPRPRPRWHPRP | 0.522
RRIRGRPPRLPRPRPRPRWKPRP | 0.0802
RRIRGRPPRLPRPRPRPRWSPRP | 0.754
RRIRGRPPRLPRPRPRPRYDPRP | -0.057

Sequence | shrunken log2 fold change
RRIRGRPPRLPRPRPRPRYGPRP | 0.134
RRIRGRPPRLPRPRPRPRYRPRP | 0.0699
RRIRGRPPRLPRPRPRPSAPPRP | 0.711
RRIRGRPPRLPRPRPRPSDEPRP | 0.178
RRIRGRPPRLPRPRPRPSDFPRP | 0.0231
RRIRGRPPRLPRPRPRPSEHPRP | 0.149
RRIRGRPPRLPRPRPRPSEIPRP | -0.193
RRIRGRPPRLPRPRPRPSEVPRP | 0.425
RRIRGRPPRLPRPRPRPSFGPRP | 0.0834
RRIRGRPPRLPRPRPRPSFKPRP | -0.0759
RRIRGRPPRLPRPRPRPSGDPRP | 0.952
RRIRGRPPRLPRPRPRPSGFPRP | 0.547
RRIRGRPPRLPRPRPRPSGPPRP | -0.0342
RRIRGRPPRLPRPRPRPSGTPRP | 0.913
RRIRGRPPRLPRPRPRPSITPRP | 0.0975
RRIRGRPPRLPRPRPRPSMMPRP | 0.0755
RRIRGRPPRLPRPRPRPSMRPRP | 1.15
RRIRGRPPRLPRPRPRPSNCPRP | 0.0376
RRIRGRPPRLPRPRPRPSNYPRP | -0.0111
RRIRGRPPRLPRPRPRPSPVPRP | 0.585
RRIRGRPPRLPRPRPRPSQDPRP | 0.296
RRIRGRPPRLPRPRPRPSQKPRP | 0.0248
RRIRGRPPRLPRPRPRPSRLPRP | 0.204
RRIRGRPPRLPRPRPRPSSQPRP | 0.099
RRIRGRPPRLPRPRPRPSVIPRP | 0.159

Sequence | shrunken log2 fold change
RRIRGRPPRLPRPRPRPSVLPRP | 0.389
RRIRGRPPRLPRPRPRPSVRPRP | 0.529
RRIRGRPPRLPRPRPRPSYFPRP | -0.0109
RRIRGRPPRLPRPRPRPSYMPRP | -0.0696
RRIRGRPPRLPRPRPRPTADPRP | 2.65
RRIRGRPPRLPRPRPRPTCRPRP | 0.825
RRIRGRPPRLPRPRPRPTCYPRP | 0.34
RRIRGRPPRLPRPRPRPTEYPRP | -0.0607
RRIRGRPPRLPRPRPRPTHIPRP | 0.255
RRIRGRPPRLPRPRPRPTIHPRP | 0.434
RRIRGRPPRLPRPRPRPTKKPRP | 0.689
RRIRGRPPRLPRPRPRPTKWPRP | 0.262
RRIRGRPPRLPRPRPRPTLLPRP | 0.884
RRIRGRPPRLPRPRPRPTLWPRP | 1.27
RRIRGRPPRLPRPRPRPTMDPRP | 0.985
RRIRGRPPRLPRPRPRPTMTPRP | 2.08
RRIRGRPPRLPRPRPRPTPAPRP | 1.43
RRIRGRPPRLPRPRPRPTPGPRP | 0.971
RRIRGRPPRLPRPRPRPTPQPRP | 1.05
RRIRGRPPRLPRPRPRPTRVPRP | 0.748
RRIRGRPPRLPRPRPRPTTWPRP | 0.521
RRIRGRPPRLPRPRPRPVAYPRP | 0.0402
RRIRGRPPRLPRPRPRPVDPPRP | 0.107
RRIRGRPPRLPRPRPRPVEAPRP | 0.997
RRIRGRPPRLPRPRPRPVEGPRP | 0.305

Sequence | shrunken log2 fold change
RRIRGRPPRLPRPRPRPVEHPRP | 0.117
RRIRGRPPRLPRPRPRPVEPPRP | 0.79
RRIRGRPPRLPRPRPRPVFDPRP | 0.39
RRIRGRPPRLPRPRPRPVFIPRP | 0.0618
RRIRGRPPRLPRPRPRPVFVPRP | 0.324
RRIRGRPPRLPRPRPRPVGAPRP | 1.13
RRIRGRPPRLPRPRPRPVGCPRP | 0.74
RRIRGRPPRLPRPRPRPVHEPRP | 0.434
RRIRGRPPRLPRPRPRPVHTPRP | 0.174
RRIRGRPPRLPRPRPRPVIDPRP | 0.292
RRIRGRPPRLPRPRPRPVIHPRP | 0.0507
RRIRGRPPRLPRPRPRPVKIPRP | 0.16
RRIRGRPPRLPRPRPRPVLFPRP | 0.752
RRIRGRPPRLPRPRPRPVLVPRP | 0.628
RRIRGRPPRLPRPRPRPVMQPRP | 0.775
RRIRGRPPRLPRPRPRPVPCPRP | 0.463
RRIRGRPPRLPRPRPRPVPEPRP | 1.98
RRIRGRPPRLPRPRPRPVPHPRP | -0.0133
RRIRGRPPRLPRPRPRPVPSPRP | 0.201
RRIRGRPPRLPRPRPRPVPYPRP | 0.11
RRIRGRPPRLPRPRPRPVQDPRP | 0.197
RRIRGRPPRLPRPRPRPVQHPRP | 0.542
RRIRGRPPRLPRPRPRPVQTPRP | 0.626
RRIRGRPPRLPRPRPRPVQWPRP | 0.171
RRIRGRPPRLPRPRPRPVRFPRP | 0.685

Sequence | shrunken log2 fold change
RRIRGRPPRLPRPRPRPVTWPRP | 0.425
RRIRGRPPRLPRPRPRPVWYPRP | 0.196
RRIRGRPPRLPRPRPRPVYEPRP | 0.271
RRIRGRPPRLPRPRPRPVYPPRP | -0.129
RRIRGRPPRLPRPRPRPVYWPRP | 1.38
RRIRGRPPRLPRPRPRPWAMPRP | 0.483
RRIRGRPPRLPRPRPRPWANPRP | 0.0528
RRIRGRPPRLPRPRPRPWCFPRP | 0.212
RRIRGRPPRLPRPRPRPWCTPRP | -0.0466
RRIRGRPPRLPRPRPRPWDRPRP | -0.141
RRIRGRPPRLPRPRPRPWEEPRP | -0.0105
RRIRGRPPRLPRPRPRPWELPRP | 0.136
RRIRGRPPRLPRPRPRPWFHPRP | -0.121
RRIRGRPPRLPRPRPRPWGAPRP | 0.444
RRIRGRPPRLPRPRPRPWGEPRP | 0.285
RRIRGRPPRLPRPRPRPWHWPRP | 0.424
RRIRGRPPRLPRPRPRPWIRPRP | -0.164
RRIRGRPPRLPRPRPRPWKVPRP | -0.00197
RRIRGRPPRLPRPRPRPWLAPRP | 0.0824
RRIRGRPPRLPRPRPRPWLHPRP | 0.106
RRIRGRPPRLPRPRPRPWLWPRP | 0.0131
RRIRGRPPRLPRPRPRPWMYPRP | -0.0352
RRIRGRPPRLPRPRPRPWPVPRP | 0.674
RRIRGRPPRLPRPRPRPWQDPRP | 0.00455
RRIRGRPPRLPRPRPRPWRFPRP | 0.425
